Test results from patent US20100135997A1 (MEDGENE, published 2010).
Numbering of substitutions follows the chain as printed.

B1: soluble truncated variant of the Wild-Type ILT-2 molecule (domains D1 and D2) (receptor)
chain: MGHLPKPTLWAEPGSVITQGSPVTLRCQGGQETQEYRLYREKKTAPWITRIPQELVKKGQFPIPSITWEHAGRYRCYYGSDTAGRSESSDPLELVVTGAYIKPTLSAQPSPVVNSGGNVTLQCDSQVAFDGFILCKEGEDEHPQCLNSQPHARGSSRAIFSVGPVSPSRRWWYRCYAYDSNSPYEWSLPSDLLELLVL
notes: the entry carries the N-terminal Met used for bacterial expression; also called soluble wild-type ILT-2; soluble variant of wild-type ILT-2
B2: SEQ ID NO 128 (receptor)
chain: MGHLPKPTLWAEPGSVITMDQPVTLRCQGGQETQEYRLYREKKTAPWITRIPQELVKKGQFPIPSITWEHAGRYRCYYGSDTSQWSASSDPLELVVTGVYIKPTLSAQPSPVVNSGGNVTLQCDSPWVADGFILCKEGEDEHPQCLNSQPHARGSSRAIFSVGPVSPSRRWWYRCYAYMSWSPYEWSLPSDLLELDVDG
notes: mutated soluble two domain ILT-2
B3: SEQ ID NO 129 (receptor)
chain: B2 chain with W127F, V128L, A129T
notes: as for B2
B4: SEQ ID NO 130 (receptor)
chain: B2 chain with V128L
notes: as for B2
B5: SEQ ID NO 131 (receptor)
chain: B2 chain with W127F, V128Q
notes: mutated soluble two domain ILT-2; also called c132
B6: SEQ ID NO 132 (receptor)
chain: B2 chain with W127F, V128I, D130E
notes: as for B2
B7: SEQ ID NO 133 (receptor)
chain: B2 chain with W127F, V128L, A129S, R170K
notes: as for B2
B8: SEQ ID NO 134 (receptor)
chain: B2 chain with W127F, A129S
notes: as for B2
B9: SEQ ID NO 136 (receptor)
chain: B2 chain with P126M, W127F, V128L, A129V
notes: as for B2
B10: SEQ ID NO 66 (receptor)
chain: MHLPKPTLWAEPGSVITMDQPVTLRCQGGQETQEYRLYREKKTAPWITRIPQELVKKGQFPIPSITWEHAGRYRCYYGSDTSQWSASSDPLELVVTGVYIKPTLSAQPSPVVNSGGNVTLQCDSQVAFDGFILCKEGEDEHPQCLNSQPHARGSSRAIFSVGPVSPSRRWWYRCYAYDSNSPYEWSLPSDLLELDVDG
notes: as for B2
B11: SEQ ID NO 6 (receptor)
chain: B10 chain with M18L, D19Q, Q20S, E34Q, S82R, E140D, W171R
notes: as for B2
B12: SEQ ID NO 24 (receptor)
chain: MHLPKPTLWAEPGSVITLQSPVTLRCQGGQETQQYRLYREKKTAPWITRIPQELVKKGQFPIPSITWEHAGRYRCYYGSDTRQWSASSDPLELVVTGVYIKPTLSAQPSPVVNSGGNVTLQCDSQVAFDGFILCKEGEDDHPQCLNSQPHARGSSRAIFSVGPVSPSRRWRYRCYAYPIWTPYEWSLPSDLLELDVDG
notes: as for B2
B13: SEQ ID NO 25 (receptor)
chain: B12 chain with P178V, I179A, T181A
notes: as for B2
B14: SEQ ID NO 26 (receptor)
chain: B12 chain with P178M, I179N, T181A
notes: as for B2
B15: SEQ ID NO 27 (receptor)
chain: B12 chain with I179A
notes: as for B2
B16: SEQ ID NO 28 (receptor)
chain: B12 chain with P178M, I179S, T181A
notes: as for B2
B17: SEQ ID NO 29 (receptor)
chain: B12 chain with P178M, I179S, T181S
notes: as for B2
B18: SEQ ID NO 42 (receptor)
chain: B12 chain with V22L, P178D, I179S, W180N, T181S
notes: as for B2
B19: SEQ ID NO 49 (receptor)
chain: B12 chain with V22L, P178M, I179S, T181S
notes: as for B2
B20: SEQ ID NO 50 (receptor)
chain: B12 chain with V22L, P178M, I179S, T181A
notes: as for B2
B21: SEQ ID NO 110 (receptor)
chain: B10 chain with W171R
notes: as for B2
B22: SEQ ID NO 111 (receptor)
chain: B10 chain with R49L, E140G, R173W
notes: as for B2
B23: SEQ ID NO 112 (receptor)
chain: B10 chain with K41R
notes: as for B2
B24: SEQ ID NO 113 (receptor)
chain: B10 chain with M18L, D19G
notes: as for B2
B25: SEQ ID NO 114 (receptor)
chain: B10 chain with M18L, D19G, Q20S
notes: as for B2
B26: SEQ ID NO 115 (receptor)
chain: B10 chain with M18L, D19R, Q20S
notes: as for B2
B27: SEQ ID NO 116 (receptor)
chain: B10 chain with M18L, D19Q, Q20S
notes: as for B2
B28: SEQ ID NO 117 (receptor)
chain: B10 chain with M18L, D19E, Q20S
notes: as for B2
B29: SEQ ID NO 118 (receptor)
chain: B10 chain with S79T, D80Q, S82A, Q83G, W84R, A86E
notes: as for B2
B30: SEQ ID NO 119 (receptor)
chain: B10 chain with Y76M, Y77Q, G78Y, S79T, D80L, S82A, Q83G, W84R, A86E
notes: as for B2
B31: SEQ ID NO 120 (receptor)
chain: B10 chain with Y76V, Y77I, G78Q, S79R, D80G, S82A, Q83G, W84R, A86E
notes: as for B2
B32: SEQ ID NO 121 (receptor)
chain: B10 chain with S79G, D80Q, T81E, S82G, Q83A, W84R, A86E
notes: as for B2
B33: SEQ ID NO 122 (receptor)
chain: B10 chain with S79T, D80Q
notes: as for B2
B34: SEQ ID NO 124 (receptor)
chain: B10 chain with L145D
notes: as for B2
B35: SEQ ID NO 125 (receptor)
chain: B10 chain with I158E
notes: as for B2
B36: SEQ ID NO 126 (receptor)
chain: B10 chain with L187D
notes: as for B2
B37: SEQ ID NO 127 (receptor)
chain: B10 chain with C134S, C144S
notes: as for B2
B38: SEQ ID NO 60 (receptor)
chain: MGHLPKPTLWAEPGSVITMDQPVTLRCQGGQETQQYRLYREKKTAPWITRIPQELVKKGQFPIPSITWEHAGRYRCYYGSDTRQWSASSDPLELVVTGVYIKPTLSAQPSPVVNSGGNVTLQCDSQVAFDGFILCKEGEDDHPQCLNSQPHARGSSRAIFSVGPVSPSRRWRYRCYAYDSNSPYEWTRGSDLLELDVDG
notes: as for B2
B39: SEQ ID NO 67 (receptor)
chain: MHLPKPTLWAEPGSVITMDQPVTLRCQGGQETQEYRLYREKKTAPWITRIPQELVKKGQFPIPSITWEHAGRYRCYYGSDTSQWSASSDPLELVVTGVYIKPTLSAQPSPVVNSGGNVTLQCDSQVAFDGFILCKEGEDEHPQCLNSQPHARGSSRAIFSVGPVSPSRRWWYRCYAYDSNSPYEWSLPSDLLELDVDGC
notes: as for B2
B40: SEQ ID NO 107 (receptor)
chain: MGHLPKPTLWAEPGSVITMDQPVTLRCQGGQETQEYRLYREKKTAPWITRIPQELVKKGQFPIPSITWEHAGRYRCIGRSQTSQWSASSDPLELVVTGIYLAPTLSAQPSPVVNSGGNVTLQCDSQVAFDGFILCKEGEDEHPQCLNSQPHARGSSRAIFSVGPVSPSRRWWYRCYAYDSNSPYEWSLPSDLLELLVL
notes: as for B2
B41: SEQ ID NO 108 (receptor)
chain: B40 chain with M19L, D20G
notes: as for B2
B42: SEQ ID NO 109 (receptor)
chain: B10 chain
notes: as for B2

What was measured:
[1] = target: T1, HLA-A*0201 loaded with the Carcinoembryonic antigen (CEA)-derived … peptide (biotin on the C-terminal biotinylation tag); assay: Biacore SPR, biotinylated pMHC immobilised on streptavidin
T1 construct: Soluble, biotinylated, immobilised on a streptavidin chip

[2] = target: T1, HLA-A*0201 loaded with the …; assay: Biacore SPR
In short: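 pMHC complexes were immobilised in SPR flow cells through biotin-tag binding. Soluble ILT-like molecule was passed over the surfaces at constant flow rate and response recorded in RU for affinity and kinetic analysis.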

| Binder | Kd [1] | koff [1] | Kd [2] | koff [2] |
| --- | --- | --- | --- | --- |
| B1 | ~6000 nM | 2.4 s⁻¹ |  |  |
| B2 |  |  | ≤ 1000 nM | ≤ 2 s⁻¹ |
| B3 |  |  | ≤ 1000 nM | ≤ 2 s⁻¹ |
| B4 |  |  | ≤ 1000 nM | ≤ 2 s⁻¹ |
| B5 |  |  | ≤ 1000 nM | ≤ 2 s⁻¹ |
| B6 |  |  | ≤ 1000 nM | ≤ 2 s⁻¹ |
| B7 |  |  | ≤ 1000 nM | ≤ 2 s⁻¹ |
| B8 |  |  | ≤ 1000 nM | ≤ 2 s⁻¹ |
| B9 |  |  | ≤ 1000 nM | ≤ 2 s⁻¹ |
| B10 |  |  | ≤ 1000 nM | ≤ 2 s⁻¹ |
| B11 |  |  | ≤ 1000 nM | ≤ 2 s⁻¹ |
| B12 |  |  | ≤ 1000 nM | ≤ 2 s⁻¹ |
| B13 |  |  | ≤ 1000 nM | ≤ 2 s⁻¹ |
| B14 |  |  | ≤ 1000 nM | ≤ 2 s⁻¹ |
| B15 |  |  | ≤ 1000 nM | ≤ 2 s⁻¹ |
| B16 |  |  | ≤ 1000 nM | ≤ 2 s⁻¹ |
| B17 |  |  | ≤ 1000 nM | ≤ 2 s⁻¹ |
| B18 |  |  | ≤ 1000 nM | ≤ 2 s⁻¹ |
| B19 |  |  | ≤ 1000 nM | ≤ 2 s⁻¹ |
| B20 |  |  | ≤ 1000 nM | ≤ 2 s⁻¹ |
| B21 |  |  | ≤ 1000 nM | ≤ 2 s⁻¹ |

| Binder | Kd [1] | koff [1] | Kd [2] | koff [2] |
| --- | --- | --- | --- | --- |
| B22 |  |  | ≤ 1000 nM | ≤ 2 s⁻¹ |
| B23 |  |  | ≤ 1000 nM | ≤ 2 s⁻¹ |
| B24 |  |  | ≤ 1000 nM | ≤ 2 s⁻¹ |
| B25 |  |  | ≤ 1000 nM | ≤ 2 s⁻¹ |
| B26 |  |  | ≤ 1000 nM | ≤ 2 s⁻¹ |
| B27 |  |  | ≤ 1000 nM | ≤ 2 s⁻¹ |
| B28 |  |  | ≤ 1000 nM | ≤ 2 s⁻¹ |
| B29 |  |  | ≤ 1000 nM | ≤ 2 s⁻¹ |
| B30 |  |  | ≤ 1000 nM | ≤ 2 s⁻¹ |
| B31 |  |  | ≤ 1000 nM | ≤ 2 s⁻¹ |
| B32 |  |  | ≤ 1000 nM | ≤ 2 s⁻¹ |
| B33 |  |  | ≤ 1000 nM | ≤ 2 s⁻¹ |
| B34 |  |  | ≤ 1000 nM | ≤ 2 s⁻¹ |
| B35 |  |  | ≤ 1000 nM | ≤ 2 s⁻¹ |
| B36 |  |  | ≤ 1000 nM | ≤ 2 s⁻¹ |
| B37 |  |  | ≤ 1000 nM | ≤ 2 s⁻¹ |
| B38 |  |  | ≤ 1000 nM | ≤ 2 s⁻¹ |
| B39 |  |  | ≤ 1000 nM | ≤ 2 s⁻¹ |
| B40 |  |  | ≤ 1000 nM | ≤ 2 s⁻¹ |
| B41 |  |  | ≤ 1000 nM | ≤ 2 s⁻¹ |
| B42 |  |  | ≤ 1000 nM | ≤ 2 s⁻¹ |
